T1: AIM2HIN (Homo sapiens, UniProt O14862 144-343)
T1 sequence: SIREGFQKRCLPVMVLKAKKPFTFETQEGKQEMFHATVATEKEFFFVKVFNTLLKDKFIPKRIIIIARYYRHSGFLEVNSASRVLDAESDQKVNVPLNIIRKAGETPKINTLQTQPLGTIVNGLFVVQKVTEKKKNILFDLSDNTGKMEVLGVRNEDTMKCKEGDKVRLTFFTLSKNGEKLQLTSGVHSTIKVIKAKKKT

T2: AIM2FL (Homo sapiens, UniProt O14862 1-343)
T2 sequence: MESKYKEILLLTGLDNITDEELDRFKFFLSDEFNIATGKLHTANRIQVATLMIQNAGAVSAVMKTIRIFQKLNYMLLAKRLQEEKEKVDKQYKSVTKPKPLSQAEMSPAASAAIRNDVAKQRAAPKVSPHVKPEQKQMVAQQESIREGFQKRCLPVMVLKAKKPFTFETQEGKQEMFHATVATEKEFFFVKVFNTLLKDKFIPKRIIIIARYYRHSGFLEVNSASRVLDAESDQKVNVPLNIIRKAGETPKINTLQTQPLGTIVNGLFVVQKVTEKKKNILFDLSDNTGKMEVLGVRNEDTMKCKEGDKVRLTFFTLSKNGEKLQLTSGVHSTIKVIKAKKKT

B1: 60-base ssDNA_A (ssDNA)
DNA: AAAGAAAGAAAGAAAGAAAGAAAGAAAGAAAGAAAGAAAGAAAGAAAGAAAGAAAGAAAG
B2: 60-bp dsDNA (dsDNA)
DNA 1: TAAGACACGATGCGATAAAATCTGTTTGTAAAATTTATTAAGGGTACAAATTGCCCTAGC
DNA 2: GCTAGGGCAATTTGTACCCTTAATAAATTTTACAAACAGATTTTATCGCATCGTGTCTTA
B3: 60-base ssDNA_T (ssDNA)
DNA: TTTCTTTCTTTCTTTCTTTCTTTCTTTCTTTCTTTCTTTCTTTCTTTCTTTCTTTCTTTC
B4: 60-base ssRNA_A (ssRNA)
RNA: B1 DNA
B5: 60-bp dsRNA (dsRNA)
RNA 1: UAAGACACGAUGCGAUAAAAUCUGUUUGUAAAAUUUAUUAAGGGUACAAAUUGCCCUAGC
RNA 2: GCUAGGGCAAUUUGUACCCUUAAUAAAUUUUACAAACAGAUUUUAUCGCAUCGUGUCUUA
B6: 60-base ssRNA_U (ssRNA)
RNA: UUUCUUUCUUUCUUUCUUUCUUUCUUUCUUUCUUUCUUUCUUUCUUUCUUUCUUUCUUUC
B7: 24-bp dsDNA (dsDNA)
DNA 1: TAAGACACGATGCGATAAAATCTG
DNA 2: CAGATTTTATCGCATCGTGTCTTA
B8: 24-bp dsRNA (dsRNA)
RNA 1: UAAGACACGAUGCGAUAAAAUCUG
RNA 2: CAGAUUUUAUCGCAUCGUGUCUUA
B9: 24-bp DNA:RNA hybrid (DNA:RNA)
DNA: TAAGACACGATGCGATAAAATCTG
RNA: CAGAUUUUAUCGCAUCGUGUCUUA

The binders below were run against T3, IFI16HinAB (Homo sapiens, UniProt Q16666-2 159-729) (assay: fluorescence anisotropy; 60 mM KCl; 160 mM KCl; 60 mM KCl for IFI16HinAB; FAM probe 3-6 nM (FA) or 20 nM (EMSA); binding buffer pH and temperature not in the material). Details: protein: recombinant.
T3 sequence (Q16666 other isoform, or with tags, fused parts or gaps): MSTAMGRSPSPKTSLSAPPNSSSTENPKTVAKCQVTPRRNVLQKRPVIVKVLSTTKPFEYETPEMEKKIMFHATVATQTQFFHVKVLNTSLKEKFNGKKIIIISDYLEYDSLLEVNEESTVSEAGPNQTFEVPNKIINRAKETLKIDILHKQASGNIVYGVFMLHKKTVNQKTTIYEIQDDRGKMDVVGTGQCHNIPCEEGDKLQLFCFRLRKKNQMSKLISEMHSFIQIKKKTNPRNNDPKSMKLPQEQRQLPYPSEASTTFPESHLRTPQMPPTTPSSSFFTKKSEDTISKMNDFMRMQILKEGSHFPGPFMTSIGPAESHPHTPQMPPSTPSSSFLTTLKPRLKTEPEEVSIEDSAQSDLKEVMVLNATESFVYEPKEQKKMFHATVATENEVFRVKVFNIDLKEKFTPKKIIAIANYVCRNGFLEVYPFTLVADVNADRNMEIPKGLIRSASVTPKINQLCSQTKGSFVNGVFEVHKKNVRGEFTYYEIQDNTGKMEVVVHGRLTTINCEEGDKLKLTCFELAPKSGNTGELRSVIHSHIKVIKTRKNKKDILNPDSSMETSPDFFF

Binder	Kd [µM]
B1	0.5 ± 0.2

Each binder was assayed against T3, IFI16HinAB (assay: competition fluorescence anisotropy; unlabelled competitor against 6 nM 60-bp FAM-dsDNA, 400 nM protein; 160 mM KCl (60 mM KCl for IFI16HinAB); buffer, pH and temperature not given in the available text). Details: protein: recombinant.

Binder	IC50 [µM]
B2	0.258 ± 0.0249
B3	1.39 ± 0.137
B1	3.01
B4	1.97 ± 0.09
B5	1.43 ± 0.366

The binders below were run against T1, AIM2HIN in the same assay as above. Details: protein: recombinant.

Binder	IC50 [µM]
B2	0.268 ± 0.0084
B3	1 ± 0.259
B4	1.23 ± 0.483
B5	0.281 ± 0.0531
B6	0.741 ± 0.0703

The binders below were run against T4, IFI16FL (Homo sapiens, UniProt Q16666-2 1-729) (assay: fluorescence anisotropy; 160 mM KCl (60 mM KCl for IFI16HinAB); buffer, pH and temperature not given in the available text). Details: protein: recombinant; tags: C-terminal His6.
T4 sequence (Q16666 other isoform, or with tags, fused parts or gaps): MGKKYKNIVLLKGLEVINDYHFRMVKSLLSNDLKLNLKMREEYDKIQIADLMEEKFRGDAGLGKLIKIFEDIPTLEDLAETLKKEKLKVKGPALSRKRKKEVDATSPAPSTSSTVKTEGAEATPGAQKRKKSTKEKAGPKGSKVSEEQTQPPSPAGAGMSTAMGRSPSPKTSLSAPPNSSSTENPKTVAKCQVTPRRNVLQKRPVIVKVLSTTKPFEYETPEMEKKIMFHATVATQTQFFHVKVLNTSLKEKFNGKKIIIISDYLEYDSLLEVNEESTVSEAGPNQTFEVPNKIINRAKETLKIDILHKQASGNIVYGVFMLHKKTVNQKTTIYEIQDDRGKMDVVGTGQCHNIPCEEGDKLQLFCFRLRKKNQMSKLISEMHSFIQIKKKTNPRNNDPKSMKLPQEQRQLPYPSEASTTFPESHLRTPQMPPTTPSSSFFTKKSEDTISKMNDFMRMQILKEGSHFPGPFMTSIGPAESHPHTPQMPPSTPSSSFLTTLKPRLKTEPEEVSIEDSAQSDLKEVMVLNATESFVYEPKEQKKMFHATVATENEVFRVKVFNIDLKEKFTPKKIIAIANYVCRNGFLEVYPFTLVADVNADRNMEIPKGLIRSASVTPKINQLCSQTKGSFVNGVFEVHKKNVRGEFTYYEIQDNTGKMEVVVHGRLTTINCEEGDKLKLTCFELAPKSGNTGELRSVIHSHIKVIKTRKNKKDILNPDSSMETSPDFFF

Binder	Kd [µM]
B3	0.022 ± 0.004
B5	0.085 ± 0.007
B6	0.078 ± 0.011

Each binder was assayed against T3, IFI16HinAB in the same assay as above. Details: protein: recombinant.

Binder	Kd [µM]
B2	0.02 ± 0.01
B3	0.07 ± 0.02
B5	0.03 ± 0.01
B6	0.03 ± 0.01

The binders below were run against T2, AIM2FL in the same assay as above. Details: protein: recombinant.

Binder	Kd [µM]
B3	0.32 ± 0.08
B1	0.15 ± 0.03
B4	0.4 ± 0.1
B5	0.05 ± 0.01
B6	0.08 ± 0.02

Same assay, conditions: protein: recombinant; label: FAM

Binder	Kd [µM]
B7	0.08 ± 0.02

These binders were tested against T1, AIM2HIN in the same assay as above. Details: protein: recombinant.

Binder	Kd [µM]
B2	0.6 ± 0.1
B3	0.4 ± 0.1
B1	2.7 ± 0.1
B4	1.4 ± 0.2
B5	1.1 ± 0.2
B6	0.3 ± 0.1

Same assay, conditions: protein: recombinant; label: FAM

Binder	Kd [µM]
UUUCUUUCUUUCUUUCUUUCUUUC (ssRNA) [24-base ssRNA_U]	0.21 ± 0.06
B7	0.9 ± 0.2
TTTCTTTCTTTCTTTCTTTCTTTC (ssDNA) [24-base ssDNA_T]	1.2 ± 0.2
B8	1.2 ± 0.2
B9	0.9 ± 0.1

These binders were tested against T2, AIM2FL (assay: fluorescence anisotropy; upper-limit estimate; 160 mM KCl; 60 mM KCl for IFI16HinAB; FAM probe 3-6 nM (FA) or 20 nM (EMSA); binding buffer pH and temperature not in the material). Details: protein: recombinant.

Binder	Kd [µM]
B2	< 0.003

What follows are binders tested against T3, IFI16HinAB (assay: competition fluorescence anisotropy; unlabelled competitor against 6 nM 24-bp FAM-dsDNA, 1000 nM protein; 160 mM KCl (60 mM KCl for IFI16HinAB); buffer, pH and temperature not given in the available text). Details: protein: recombinant.

Binder	IC50 [µM]
B2	0.289 ± 0.0373
B3	0.828 ± 0.155
B5	1.13 ± 0.0617
B6	0.733 ± 0.0485

What follows are binders tested against T4, IFI16FL (assay: competition fluorescence anisotropy; unlabelled competitor against 6 nM 24-bp FAM-dsDNA, 500 nM protein; 160 mM KCl (60 mM KCl for IFI16HinAB); buffer, pH and temperature not given in the available text). Details: protein: recombinant; tags: C-terminal His6.

Binder	IC50 [µM]
B3	0.644 ± 0.133
B5	0.49 ± 0.0403
B6	0.305 ± 0.0485

Same assay, conditions: protein: recombinant; tags: C-terminal His6; chain copies: 4

Binder	IC50 [µM]
B2	0.331 ± 0.0298

These binders were tested against T3, IFI16HinAB (assay: EMSA; apparent KD >=1 uM; low salt; 160 mM KCl; 60 mM KCl for IFI16HinAB; FAM probe 3-6 nM (FA) or 20 nM (EMSA); binding buffer pH and temperature not in the material). Details: protein: recombinant; label: FAM.

Binder	Kd [µM]
AAAGAAAGAAAGAAAGAAAGAAAG (ssDNA) [24-base ssDNA_A]	> 1
TTTCTTTCTTTCTTTCTTTCTTTC (ssDNA) [24-base ssDNA_T]	> 1
B8	> 1

These binders were tested against T3, IFI16HinAB (assay: EMSA; low salt; 160 mM KCl; 60 mM KCl for IFI16HinAB; FAM probe 3-6 nM (FA) or 20 nM (EMSA); binding buffer pH and temperature not in the material). Details: protein: recombinant; label: FAM.

Binder	Kd [µM]
UUUCUUUCUUUCUUUCUUUCUUUC (ssRNA) [24-base ssRNA_U]	~0.5
AAAGAAAGAAAGAAAGAAAGAAAG (ssRNA) [24-base ssRNA_A]	~0.5

Each binder was assayed against T1, AIM2HIN (assay: competition fluorescence anisotropy; unlabelled competitor against 6 nM 24-bp FAM-dsDNA, 625 nM protein; 160 mM KCl (60 mM KCl for IFI16HinAB); buffer, pH and temperature not given in the available text). Details: protein: recombinant.

Binder	IC50 [µM]
B2	0.0197 ± 0.0019
B3	0.113 ± 0.0073
B1	0.135 ± 0.0166
B4	0.1328 ± 0.0004
B5	0.0929 ± 0.0028
B6	0.219 ± 0.0335

Each binder was assayed against T3, IFI16HinAB (assay: EMSA; apparent KD <=250 nM; low salt; 160 mM KCl; 60 mM KCl for IFI16HinAB; FAM probe 3-6 nM (FA) or 20 nM (EMSA); binding buffer pH and temperature not in the material). Details: protein: recombinant; label: FAM.

Binder	Kd [µM]
B7	< 0.25
B9	< 0.25

What follows are binders tested against T2, AIM2FL (assay: competition fluorescence anisotropy; unlabelled competitor against 6 nM 60-bp FAM-dsDNA, 60 nM protein; 160 mM KCl (60 mM KCl for IFI16HinAB); buffer, pH and temperature not given in the available text). Details: protein: recombinant.

Binder	IC50 [µM]
B2	0.142 ± 0.0085
B4	1.02 ± 0.13

These binders were tested against T4, IFI16FL (assay: fluorescence anisotropy; 160 mM KCl; 60 mM KCl for IFI16HinAB; FAM probe 3-6 nM (FA) or 20 nM (EMSA); binding buffer pH and temperature not in the material). Details: protein: recombinant; tags: C-terminal His6.

Binder	Kd [µM]
B3	0.022 ± 0.004
B1	0.15 ± 0.02
B5	0.085 ± 0.007
B6	0.078 ± 0.011

What follows are binders tested against T2, AIM2FL in the same assay as above. Details: protein: recombinant.

Binder	Kd [µM]
B3	0.32 ± 0.08
B1	0.15 ± 0.03
B4	0.4 ± 0.1
B5	0.05 ± 0.01
B6	0.08 ± 0.02

What follows are binders tested against T1, AIM2HIN in the same assay as above. Details: protein: recombinant.

Binder	Kd [µM]
B1	2.7 ± 0.1

Same assay, conditions: protein: recombinant; label: FAM

Binder	Kd [µM]
AAAGAAAGAAAGAAAGAAAGAAAG (ssDNA) [24-base ssDNA_A]	5.7 ± 0.7

These binders were tested against T4, IFI16FL (assay: fluorescence anisotropy; printed 0.003*, upper-limit estimate; 160 mM KCl; 60 mM KCl for IFI16HinAB; FAM probe 3-6 nM (FA) or 20 nM (EMSA); binding buffer pH and temperature not in the material). Details: protein: recombinant; tags: C-terminal His6.

Binder	Kd [µM]
B2	< 0.003

What follows are binders tested against T2, AIM2FL (assay: competition fluorescence anisotropy; unlabelled competitor against 6 nM 24-bp FAM-dsDNA, 100 nM protein; 160 mM KCl (60 mM KCl for IFI16HinAB); buffer, pH and temperature not given in the available text). Details: protein: recombinant.

Binder	IC50 [µM]
B2	0.0118 ± 0.0003
B3	0.165 ± 0.0073
B1	0.0589 ± 0.0067
B4	0.0461 ± 0.0027
B5	0.0697 ± 0.0067
B6	0.273 ± 0.171

The binders below were run against T4, IFI16FL (assay: competition fluorescence anisotropy; unlabelled competitor against 6 nM 60-bp FAM-dsDNA, 100 nM protein; 160 mM KCl (60 mM KCl for IFI16HinAB); buffer, pH and temperature not given in the available text). Details: protein: recombinant; tags: C-terminal His6.

Binder	IC50 [µM]
B4	0.166 ± 0.018
B5	1.07 ± 0.132
B6	1.12 ± 0.0755

Same assay, conditions: protein: recombinant; tags: C-terminal His6; chain copies: 4

Binder	IC50 [µM]
B2	0.627 ± 0.132

— paper PMC10085679, “Filament assembly underpins the double-stranded DNA specificity of AIM2-like receptors”
